Source: patent US20250066745A1, “MUTANTS AND USE THEREOF” (BGI SHENZHEN, priority 2021, published 2025)
Changes are numbered by the printed parent chain. Numbers in names are those of the source.

B1: A17V H79K P84A E102D S103T E110P L124M: Gaussia luciferase mutant (protein)
chain: MGVKVLFALICIAVAEVKPTENNEDFNIVAVASNFATTDLDADRGKLPGKKLPLEVLKEMEANARKAGCTRGCLICLSKIKCTAKMKKFIPGRCHTYEGDKDTAQGGIGPAIVDIPEIPGFKDMEPMEQFIAQVDLCVDCTTGCLKGLANVQCSDLLKKWLPQRCATFASKIQGQVDKIKGAGGD
modifications: SIGNAL (1)..(17)
notes: Gaussia luciferase mutant
B2: H79K P84K E102K S103I V138E: Gaussia luciferase mutant (protein)
chain: B1 chain with V17A, A84K, D102K, T103I, P110E, M124L, V138E
modifications: SIGNAL (1)..(17)
notes: Gaussia luciferase mutant
B3: H79K P84L V138D: Gaussia luciferase mutant (protein)
chain: B1 chain with V17A, A84L, D102E, T103S, P110E, M124L, V138D
modifications: SIGNAL (1)..(17)
notes: Gaussia luciferase mutant
B4: H79K P84L S103T A104G E110A: Gaussia luciferase mutant (protein)
chain: B1 chain with V17A, A84L, D102E, A104G, P110A, M124L
modifications: SIGNAL (1)..(17)
notes: Gaussia luciferase mutant
B5: H79K P84A E102S S103I A104G E110P L124M: Gaussia luciferase mutant (protein)
chain: B1 chain with V17A, D102S, T103I, A104G
modifications: SIGNAL (1)..(17)
notes: Gaussia luciferase mutant
B6: I10T C11S A13D A15I E16R A17S: Gaussia luciferase mutant (protein)
chain: MGVKVLFALTSIDVIRSKPTENNEDFNIVAVASNFATTDLDADRGKLPGKKLPLEVLKEMEANARKAGCTRGCLICLSHIKCTPKMKKFIPGRCHTYEGDKESAQGGIGEAIVDIPEIPGFKDLEPMEQFIAQVDLCVDCTTGCLKGLANVQCSDLLKKWLPQRCATFASKIQGQVDKIKGAGGD
modifications: SIGNAL (1)..(17)
notes: Gaussia luciferase mutant
B7: A42G Q152C T167G S170T G174N K178S A182Y G183A: Gaussia luciferase mutant (protein)
chain: MGVKVLFALICIAVAEAKPTENNEDFNIVAVASNFATTDLDGDRGKLPGKKLPLEVLKEMEANARKAGCTRGCLICLSHIKCTPKMKKFIPGRCHTYEGDKESAQGGIGEAIVDIPEIPGFKDLEPMEQFIAQVDLCVDCTTGCLKGLANVCCSDLLKKWLPQRCAGFATKIQNQVDSIKGYAGD
modifications: SIGNAL (1)..(17)
notes: Gaussia luciferase mutant
B8: F26V N27Y V29N A30D V31D D32L S33R A36R T37W L40Y K180R: Gaussia luciferase mutant (protein)
chain: MGVKVLFALICIAVAEAKPTENNEDVYINDDLRNFRWTDYDADRGKLPGKKLPLEVLKEMEANARKAGCTRGCLICLSHIKCTPKMKKFIPGRCHTYEGDKESAQGGIGEAIVDIPEIPGFKDLEPMEQFIAQVDLCVDCTTGCLKGLANVQCSDLLKKWLPQRCATFASKIQGQVDKIRGAGGD
modifications: SIGNAL (1)..(17)
notes: Gaussia luciferase mutant
B9: F26R V29E A30G V31L A36D T37E L40S K159: Gaussia luciferase mutant (protein)
chain: MGVKVLFALICIAVAEAKPTENNEDRNIEGLASNFDETDSDADRGKLPGKKLPLEVLKEMEANARKAGCTRGCLICLSHIKCTPKMKKFIPGRCHTYEGDKESAQGGIGEAIVDIPEIPGFKDLEPMEQFIAQVDLCVDCTTGCLKGLANVQCSDLLKKWLPQRCATFASKIQGQVDKIKGAGGD
B10: F26Y N27Y V29A A30G S33V A36V T37S L40G: Gaussia luciferase mutant (protein)
chain: B9 chain with R26Y, N27Y, E29A, L31V, S33V, D36V, E37S, S40G
modifications: SIGNAL (1)..(17)
notes: Gaussia luciferase mutant
B11: F26T N27D V29P A30G V31I A32G S33I A36I T37L L40I: Gaussia luciferase mutant (protein)
chain: B9 chain with R26T, N27D, E29P, L31I, A32G, S33I, D36I, E37L, S40I
modifications: SIGNAL (1)..(17)
notes: Gaussia luciferase mutant
B12: A30G V31I A32V S33G A36N T37D L40R: Gaussia luciferase mutant (protein)
chain: B9 chain with R26F, E29V, L31I, A32V, S33G, D36N, E37D, S40R
modifications: SIGNAL (1)..(17)
notes: Gaussia luciferase mutant
B13: F26S N27Y V29C A32G S33E A36Q T37G L40T: Gaussia luciferase mutant (protein)
chain: B9 chain with R26S, N27Y, E29C, G30A, L31V, A32G, S33E, D36Q, E37G, S40T
modifications: SIGNAL (1)..(17)
notes: Gaussia luciferase mutant

Legend:
Type in all cases: biochemical
Set-up in all cases: key to Activity of mutant relative to wild-type Gaussia luciferase without the signal peptide: ratio of mutant luminescence intensity to wild-type Gaussia luciferase
[1] = Luminescence activity assay of purified Gaussia luciferase mutants on coelenterazine; conditions: Substrate CTZ (Table 16)
Summary of the method: (§1)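 Readout: luminescence intensity, as ratio to signal-peptide-free wild-type enzyme. Enzyme 1 μg/mL, substrate 100 μM stock, 10 μL + 90 μL; buffer 50 mM Tris-HCl pH 8.0, 100 mM NaCl, 0.1% Tween-20.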

[2] = Luminescence activity assay of purified Gaussia luciferase mutants on coelenterazine derivative ZS2; conditions: Substrate ZS2 (Table 16)
Summary of the method: as §1

[3] = Luminescence activity assay of purified Gaussia luciferase mutants on fluoro-coelenterazine; conditions: Substrate f-CTZ (Table 16)
Procedure: In this Example, the protein concentration was determined with a BCA quantitative kit (Thermo Scientific™ Pierce™ BCA Protein Assay Kit) accurately. The purified luciferase obtained in Example 5 was diluted with diluent (50 mM Tris-HCl, pH 8.0, 100 mM NaCl, 0.1% (v/v) Tween-20) to 1 μg/mL. The diluted luciferase, taken for 10 μL, was moved into a black 96-well plate, then added with 90 μL of the substrates coelenterazine, fluoro-coelenterazine or coelenterazine derivative ZS2 (purchased from Biolab) which was diluted into 100 μM with the same diluent, and the luminescence intensity of the plate was read with a self-luminescence module of a microplate reader. The mutation site of the mutant, the measured luminescence intensity, the ratio of luminescence intensities of the advantageous mutants to the wild-type Gaussia luciferase without the signal peptide having the sequence shown in SEQ ID NO: 3 are shown in Table 15. The results of catalytic activity assay of the advantageous mutants relative to the wild-type Gaussia luciferase without the signal peptide having the sequence shown in SEQ ID NO: 3 on substrate coelenterazine are shown in FIG. 6. […] The results of catalytic activity assay of the advantageous mutants relative to the wild-type Gaussia luciferase without the signal peptide having the sequence shown in SEQ ID NO: 3 on substrate fluoro-coelenterazine are shown in FIG. 7.
The new mutant library constructed in Example 7 was screened and tested for substrate specificity. Expression and purification schemes were the same as that in Example 5, and the activity assay scheme was the same as that in Example 6. The respective catalytic activities of combinatorial mutants on coelenterazine, fluoro-coelenterazine or coelenterazine derivative ZS2, and coelenterazine derivative ZS26 (purchased from BIOLAB) were assayed, and comparisons among the substrate specificities of the combinatorial mutants were based on the ratios of catalytic activities on two corresponding substrates.

Activity of mutant relative to wild-type Gaussia luciferase without the signal peptide [1] | Activity of mutant relative to wild-type Gaussia luciferase without the signal peptide [2] | Activity of mutant relative to wild-type Gaussia luciferase without the signal peptide [3] | Molecule
0.198 | 0.082 | 0.763 | B1
0.750 | 0.452 | 0.479 | B2
0.094 | 0.068 | 0.936 | B3
1.921 | 0.064 | 13.108 | B4
0.000 | 0.001 | 0.007 | B5
0.071 | 0.116 | 0.086 | B6
2.527 | 1.065 | 0.520 | B7
0.072 | 0.063 | 0.065 | B8
0.000 | 0.001 | 0.009 | B9
0.219 | 0.177 | 0.192 | B10
0.231 | 0.224 | 0.210 | B11
0.138 | 0.116 | 0.615 | B12
0.119 | 0.126 | 0.143 | B13
